How the values were obtained:
rhSox2 = rhSox2 (Homo sapiens, UniProt P48431 P48431:1-317); experiment: NoShift plate assay, positive control; conditions: tags: Peprotech; label: biotin
Method: (§1) Assessment of the DNA Binding Activities of the Fusion Reprogramming Factors. The DNA-binding activities of the R9-Nanog, R9-Oct3/4, and R9-Sox2 fusion proteins were assayed by colorimetry utilizing the NoShift Transcription Factor Assay Kit (Novagen) according to the manufacturer's instructions. To assess sequence-specific binding activity, 1-2 μg of the R9-Nanog fusion protein, 2-10 μg of the R9-Oct3/4 fusion protein or 1-4 μg of the R9-Sox2 fusion protein were each incubated in […] with 0.5 μM of their respective biotinylated consensus dsDNA binding targets. […] Non-biotinylated competitor consensus dsDNA and scrambled dsDNA used to assess competitive binding were added at […]. As a positive control, recombinant human (rh) Nanog (Abcam) and rhSox (Peprotech) were used. HRP-conjugated anti-mouse immunoglobulin G was used as a secondary antibody to recognize the anti-Nanog (Abcam), anti-Oct3/4 (R&D Systems), and anti-Sox2 (R&D Systems) mouse monoclonal antibodies. All assays were performed in duplicate. Binding activity was measured via colorimetric absorbance at 450 nm on a Tecan multiwell spectrophotometer using 3,3,5,5-tetramethylbenzidine as the substrate.
(§2) The NoShift Assay (Novagen) was used to verify the DNA binding activities of R9-Nanog, R9-Sox2, and R9-Oct3/4. […]

R9-Sox2 = R9-Sox2 (Homo sapiens, UniProt P48431 P48431:1-317); experiment: NoShift plate assay, 0.5 uM DNA; reduced by unlabelled consensus competitor; conditions: protein: synthetic; tags: N-terminal CAT9-StrepTagII-Xa-R9-His6-G4S fusion, E. coli cell-free synthesis; label: biotin
R9-Sox2, sequence (P48431 whole entry, the tested form may be a part, one chain of several): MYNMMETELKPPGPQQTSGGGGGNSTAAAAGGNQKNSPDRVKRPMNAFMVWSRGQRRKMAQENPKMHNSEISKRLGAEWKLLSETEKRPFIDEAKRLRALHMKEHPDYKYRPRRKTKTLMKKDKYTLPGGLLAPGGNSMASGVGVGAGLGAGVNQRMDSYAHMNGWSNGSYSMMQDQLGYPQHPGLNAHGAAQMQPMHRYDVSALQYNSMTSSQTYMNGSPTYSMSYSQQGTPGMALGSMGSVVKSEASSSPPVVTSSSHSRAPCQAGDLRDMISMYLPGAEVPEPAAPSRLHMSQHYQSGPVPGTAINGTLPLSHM
Method: as §1, §2

rhNanog = rhNanog (Homo sapiens, UniProt Q9H9S0 Q9H9S0:1-305); experiment: NoShift plate assay, positive control; conditions: tags: Abcam; label: biotin
rhNanog, sequence (Q9H9S0 whole entry, one chain of several): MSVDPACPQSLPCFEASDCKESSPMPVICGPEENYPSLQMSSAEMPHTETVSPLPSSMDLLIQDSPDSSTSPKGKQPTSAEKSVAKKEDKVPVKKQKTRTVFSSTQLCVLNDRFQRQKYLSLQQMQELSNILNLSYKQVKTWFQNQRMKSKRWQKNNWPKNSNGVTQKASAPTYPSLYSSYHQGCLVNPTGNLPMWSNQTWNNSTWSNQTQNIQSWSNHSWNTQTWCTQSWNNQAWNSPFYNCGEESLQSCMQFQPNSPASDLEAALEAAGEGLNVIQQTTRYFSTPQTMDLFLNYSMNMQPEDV
Method: as §1, §2

R9-Oct3/4 = R9-Oct3/4 (Homo sapiens, UniProt Q01860 Q01860:1-360); experiment: NoShift plate assay, 0.5 uM DNA; reduced by unlabelled consensus competitor; conditions: protein: synthetic; tags: N-terminal CAT9-StrepTagII-Xa-R9-His6-G4S fusion, E. coli cell-free synthesis; label: biotin
R9-Oct3/4, sequence (Q01860 whole entry, the tested form may be a part, one chain of several): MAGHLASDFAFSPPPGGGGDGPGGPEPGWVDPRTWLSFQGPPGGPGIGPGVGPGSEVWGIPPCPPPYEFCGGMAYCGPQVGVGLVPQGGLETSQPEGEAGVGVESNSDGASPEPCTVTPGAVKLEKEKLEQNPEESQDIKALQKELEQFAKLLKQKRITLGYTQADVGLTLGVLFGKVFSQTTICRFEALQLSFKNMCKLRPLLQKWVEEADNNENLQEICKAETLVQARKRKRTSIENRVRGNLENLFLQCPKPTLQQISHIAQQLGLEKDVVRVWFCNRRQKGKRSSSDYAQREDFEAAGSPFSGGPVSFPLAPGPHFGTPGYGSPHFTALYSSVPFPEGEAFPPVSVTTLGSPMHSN
Method: as §1, §2

rhSox2, sequence (P48431 whole entry, the tested form may be a part, one chain of several): as the sequence (P48431 whole entry, the tested form may be a part, one chain of several) above

B1: Sox2 consensus dsDNA (dsDNA)
DNA 1: GCAGAGGACAAAGGTGCCGTG
DNA 2: CACGGCACCTTTGTCCTCTGC
binding result (rhSox2): binds
binding result (R9-Sox2): binds

B2: Nanog consensus dsDNA (dsDNA)
DNA 1: ACCTGTTAATGGGAGCGC
DNA 2: GCGCTCCCATTAACAGGT
binding result (rhNanog): binds

B3: Oct3/4 consensus dsDNA (dsDNA)
DNA 1: GCAGAGAGATGCATGTGCCGT
DNA 2: ACGGCACATGCATCTCTCTGC
binding result (R9-Oct3/4): binds

Source: patent US20120208232, “Cell-Free Synthesis of Active Reprogramming Transcription Factors” (published 2012)
